The nature of data set [1]: Stability assay: residual activity after incubation with 1 mM inhibitor, measured by pNA assay. The format is physicochemical. Also noted: key to Residual Enzyme Activity: fraction of activity at 0 h incubation (0.80 = 80%). Conditions: 1 mM Cu2+, 25° C., pH 7, 0.1% K-sorbate, relative to 0 hours. The procedure:
Feature i) is determined as residual (=rest, or remaining) enzyme activity after having incubated the enzyme for 164 hours, at pH 7 and 25° C., in assay buffer supplemented with 0.1% K-Sorbate (for preservation purposes), and in the presence of 1 mM Cu^2+. The residual activity is measured relative to the activity after 0 hours of incubation. For the protease of the invention, the residual activity is at least 0.80 (=80%).
(§1) Protease activity is measured using the substrate Suc-AAPF-pNA, in assay buffer at pH 7.0 and 25° C. For more details, please refer to the pNA assay described in Example 4, which also describes in detail the determination according to i) and ii).
(§2) 20 ul (microliters) protease (diluted in 0.01% Triton X-100) was placed in a well of a micro titer plate. The assay was started by adding 200 ul pNA substrate (50 mg dissolved in 1.0 ml DMSO and further diluted 100× with assay buffer). The increase in OD405 was monitored as a measure of the protease activity.
The protease was diluted to approx. 1 mg/ml (see below) in assay buffer with 0.1% (w/v) K-sorbate (potassium salt of sorbic acid) and 1 mM inhibitor. The mixture was incubated at 25° C.). At intervals, a sample was withdrawn from the incubation (after thorough mixing) and frozen. After dilution in assay buffer, residual activity was measured using the pNA assay. For the 1 mM inhibitor additions, the incubation was diluted in assay buffer with 5 mM EDTA in order to see a pure stability effect.
Protease concentrations were estimated from the theoretical molar extinction coefficients, E280 (1 M), which can be calculated from the amino acid composition using the formula: E280 (1 M)=5690*NTrp+1280*NTyr+120*NCys, where NTrp, NTyr, and NCys are the number of Trp, Tyr, and Cys amino acid residues in the protease (Gill, S. C., von Hippel, P. H., Analytical Biochemistry 182: 319-326 (1989)) and the molecular weight, Mw, of the protease calculated from the amino acid sequence. From an A280 measurement of a pure protease sample (more than 95% pure according to Example 2), the protease concentration was calculated as: Conc (mg/ml)=(A280*MW)/E280 (1 M)).
The stability of the various proteases in the presence of the various inhibitors in a concentration of 1 mM was tested as described above. The only inhibitor that had some effect on the stability of some of the proteases was Cu^2+. However, the effect of this inhibitor was not the same on all the proteases: See the results in Table 2 below showing that Protease 18 and the Brachysporiella proteases are indeed stable in the presence of 1 mM Cu^2+, while the other proteases are not.

Data set [2] is described as follows: pNA assay: protease activity with 1 mM Cu2+ relative to control without Cu2+. In kind it is biochemical. Conditions: enzyme 1 mg/l, Suc-AAPF-pNA, pH 7, 25° C. The procedure: as §1
Feature ii) is determined as the enzyme activity in the presence of 1 mM Cu^2+, relative to the activity of the same enzyme under the same conditions, except for the presence of Cu^2+. For the protease of the invention, this relative activity is at least 0.66 (=66%). For the purposes of feature ii), enzyme (protease) activity is measured as described above.
(§3) pNA substrate: Suc-AAPF-pNA (Bachem L-1400) or Boc-VLGR-pNA (Bachem L-1205). Temperature: 25° C.
as §2
First, the effect of various Cu^2+ concentrations was tested with an enzyme dosage of 1 mg/l. At least in the range of 0 to 1 mM Cu^2+ there seemed to be a linear relationship between inhibition and concentration of Cu^2+, the inhibition manifesting itself as a decrease in the enzyme activity with increasing concentrations of Cu^2+ (the enzyme activity being measured as average OD405 increase/time from the linear part of dose/response curves).

Data set [3] is described as follows: pNA assay dose/response curves with and without various inhibitors. Conditions: proteases included for comparative purposes. The format is biochemical. As for the experimental part: as §3, §2
Dose/response relationships (OD405/min versus (mg enzyme)/l) were determined using the pNA assay for a number of proteases, with and without the various inhibitors. The dose-response curves were linear over a satisfactory broad range of enzyme concentrations. Varying degrees of inhibition were observed: Some proteases included for comparative purposes, viz. porcine trypsin and the SAVINASE™ protease (a subtilisin protease derived from Bacillus clausii, commercially available from Novozymes A/S, Krogshoejvej 36, DK-2880 Bagsvaerd, Denmark) were not inhibited, while other proteases were. […] It was therefore concluded that the pNA assay was indeed suitable for inhibition measurements.
Cu^2+, however, inhibited all of the proteases tested (to a varying extent, as it appears from Table 1 below).

B1: Metarhizium protease: known protease derived from Metarhizium anisopliae, amino acids 1-188 of SEQ ID NO: 4 (protein, listed as Metarhizium anisopliae)
chain: MELTKFLALLAVILPVAYGAPTQAASLHPQILEAMKRDLGLNAEQATVRVAREIHATDVIEQLRSSVAFAGAWIDADVLYIGITDQALADEVTAAGATPIVMTNSLSKLEKAKEDLDKIFIGRANTLETSSDTSSGIASYFVDVAANKLVIEALADSHGHAEQLAAQVGLTSEFEVRTVETMPTTMAT
As for B1, the “Residual Enzyme Activity” value is reported as 1.000 in data set [1] (incubation time 0 hours); 0.979 in data set [1] (incubation time 3.1 hours); 0.939 in data set [1] (incubation time 18.6 hours); 0.891 in data set [1] (incubation time 44.0 hours); 0.760 in data set [1] (incubation time 116.0 hours); 0.651 in data set [1] (incubation time 164.0 hours). In addition, in data set [1] (incubation time 188.6 hours), the “Residual Enzyme Activity” value is on record as 0.627. Also, the “Enzyme Activity, +1 mM Cu^2+” value in data set [2] (1 mM Cu2+) was found to be 72.4 mOD405/min. Further, the “Relative Activity” value in data set [2] (activity with 1 mM Cu2+ relative to control without Cu2+) is on record as 0.612. Also, the “Enzyme Activity, Control (no Cu^2+)” value in data set [2] (no Cu2+) turned out to be 118.2 mOD405/min.

B2: porcine trypsin: protease included for comparative purposes (protein, UniProt P00761 9-231, looked up)
Trypsin: IVGGYTCAANSIPYQVSLNSGSHFCGGSLINSQWVVSAAHCYKSRIQVRLGEHNIDVLEGNEQFINAAKIITHPNFNGNTLDNDIMLIKLSSPATLNSRVATVSLPRSCAAAGTECLISGWGNTKSSGSSYPSLLQCLKAPVLSDSSCKSSYPGQITGNMICVGFLEGGKDSCQGDSGGPVVCNGQLQGIVSWGYGCAQKNKPGVYTKVCNYVNWIQQTIAAN
For B2, the “Inhibition by the various inhibitors (dose/response, pNA assay)” value in data set [3] is on record as “not inhibited”.

Values taken from US7906310B2, “Proteases” (Novozymes A/S, priority 2003, dated 2011).
